Results on two molecules are retold here after patent publication US20260015399A1 (Boehringer Ingelheim, published 2026).

*1 amine or outer side, *2 acyl side, *3 side chain or, on linkers, in order; H or OH if unused. Side-chain parts run from the residue outwards. The star is where a group is joined. C18 diacid = O=C(O)CCCCCCCCCCCCCCCCC(=O)*; γGlu = O=C(O)[C@H](CCC(=O)[*:2])N[*:1]; Isovaleryl = CC(C)CC(=O)*; Ahx = NCCCCCC(=O)O

The target in test [1] is T1, human NPY2 receptor (human, UniProt P49146 1-381).
T1 construct: whole, on cells; also called hNPY2-R; hNPY2R
T1 sequence (looked up): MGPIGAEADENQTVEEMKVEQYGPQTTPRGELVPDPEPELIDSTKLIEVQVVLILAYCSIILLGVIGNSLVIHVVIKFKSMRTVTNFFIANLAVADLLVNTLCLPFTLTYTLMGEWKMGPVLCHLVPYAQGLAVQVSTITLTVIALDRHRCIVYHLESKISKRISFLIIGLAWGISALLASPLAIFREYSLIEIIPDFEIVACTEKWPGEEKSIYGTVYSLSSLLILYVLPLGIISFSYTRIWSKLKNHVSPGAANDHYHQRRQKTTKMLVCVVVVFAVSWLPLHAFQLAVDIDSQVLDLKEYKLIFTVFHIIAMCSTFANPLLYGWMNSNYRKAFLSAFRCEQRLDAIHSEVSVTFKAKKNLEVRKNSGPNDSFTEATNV
As to the kind of experiment: RLB, apparent Ki of filtrate after incubation at pH 8.1-8.2 (assumed 10 mg/ml). The procedure: (§1) The filtration RLB assay was carried out in 96-well plates in a final volume of 100 μl per well. Freeze-dried test peptides were dissolved in 100% dimethyl sulfoxide (DMSO) to stock solutions of 1 mM and serial dilutions were performed in assay buffer (50 mM HEPES, 5 mM MgCl₂, 1 mM CaCl₂), pH 7.4) containing 0.2% ovalbumin. […] Next, 80 μL membranes (HTS066M, ChemiSCREEN™ Human Neuropeptide Y2 Receptor Membrane Preparation, CHEMICON) were added to each well to give a final protein concentration of 0.5 μg/well. The plates were sealed and incubated at room temperature for 2 hours in a plate shaker set at 400 rpm. The incubation was stopped by vacuum filtration onto 0.5% polyethylene amine (PEI) presoaked GF/C filters using a 96-well FilterMate™ harvester (Perkin Elmer) followed by four washes with 300 μl/well ice-cold wash buffer (50 mM HEPES, 500 mM NaCl, pH7.4). Filter plates were then dried for 60 min at room temperature and the bottom of the plates was sealed with backing tape UniFilter-96. Finally, 50 μl/well scintillation counter cocktail (Microscint20, Packard) was added and the radioactivity was counted in the Packard TopCount NXT scintillation counter. IC₅₀ values (the half maximal inhibitory concentration of the agonist) were calculated by nonlinear regression analysis of sigmoidal dose-response curves.
The peptide was (partially) dissolved by shaking the filter unit horizontally at approx. 400 rpm for 2 hours at room temperature. The sample was filtered to remove any insoluble particles.

In test [2] the target is T1, human NPY2 receptor. Put plainly: RLB, apparent Ki of filtrate after incubation at pH 7.1-7.2 (assumed 10 mg/ml). The procedure:
as §1, with “curves. […]” for “curves.”

The target in test [3] is T1, human NPY2 receptor. As to the kind of experiment: RLB: displacement of 125I-PYY(1-36) from hNPY2R membranes. For orientation: Displacement assays read how much labelled ligand stays bound in the presence of the test substance.
The target in test [4] is T1, human NPY2 receptor. As to the kind of experiment: cell-based or functional assay.
The next test deals with T2, human NPY5 receptor (human, UniProt Q15761 1-445).
T2 sequence (looked up): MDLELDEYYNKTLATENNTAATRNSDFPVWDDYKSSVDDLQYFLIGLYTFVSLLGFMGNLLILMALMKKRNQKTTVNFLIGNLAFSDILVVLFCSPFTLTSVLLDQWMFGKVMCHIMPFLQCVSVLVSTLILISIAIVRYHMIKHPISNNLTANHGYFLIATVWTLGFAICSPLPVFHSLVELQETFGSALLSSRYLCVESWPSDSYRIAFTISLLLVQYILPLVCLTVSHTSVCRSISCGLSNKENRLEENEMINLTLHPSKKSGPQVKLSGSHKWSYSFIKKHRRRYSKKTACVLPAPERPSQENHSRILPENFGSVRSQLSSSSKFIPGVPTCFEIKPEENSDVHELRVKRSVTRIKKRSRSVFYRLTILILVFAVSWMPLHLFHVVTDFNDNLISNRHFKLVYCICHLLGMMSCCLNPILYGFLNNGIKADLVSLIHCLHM
As to the kind of experiment: cell-based or functional assay.

The target of a further test is T3, human NPY1 receptor (human, UniProt P25929 1-384).
T3 sequence (looked up): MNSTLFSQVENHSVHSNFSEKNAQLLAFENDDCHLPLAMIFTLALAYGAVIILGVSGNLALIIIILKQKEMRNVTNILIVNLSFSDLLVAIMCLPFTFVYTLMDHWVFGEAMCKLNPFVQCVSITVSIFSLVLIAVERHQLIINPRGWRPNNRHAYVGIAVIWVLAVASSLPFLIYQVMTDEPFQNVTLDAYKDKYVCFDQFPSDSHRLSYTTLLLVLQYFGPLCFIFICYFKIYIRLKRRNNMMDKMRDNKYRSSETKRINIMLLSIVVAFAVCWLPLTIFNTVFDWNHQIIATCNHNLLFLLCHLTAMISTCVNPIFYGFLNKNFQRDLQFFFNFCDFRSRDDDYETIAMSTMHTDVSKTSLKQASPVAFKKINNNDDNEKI
As to the kind of experiment: cell-based or functional assay.

In the next test the target is human NPY4 receptor (human, UniProt P50391 1-375). Put plainly: cell-based or functional assay.
The target of test [5] is T1, human NPY2 receptor. As to the kind of experiment: ratio of apparent Ki, pH 8 filtrate vs pH 7 filtrate. The procedure:
as §1, with “curves. […]” for “curves.”

The target in test [6] is T1, human NPY2 receptor. As to the kind of experiment: RLB, apparent Ki of filtrate after incubation at pH 6.1-6.2 (assumed 10 mg/ml). The procedure: as §1, with “curves. […]” for “curves.”
For test [7], the target named is T1, human NPY2 receptor. Put plainly: ratio of apparent Ki, pH 6 filtrate vs pH 7 filtrate. The procedure: as §1, with “curves. […]” for “curves.”
Test [8] has as its target T1, human NPY2 receptor. As to the kind of experiment: RLB (125I-PYY(1-36) displacement, hNPY2R membranes), peptide from DMSO stock. The procedure:
as §1, with “curves. […]” for “curves.”

Chain of human NPY4 receptor (P50391 whole entry): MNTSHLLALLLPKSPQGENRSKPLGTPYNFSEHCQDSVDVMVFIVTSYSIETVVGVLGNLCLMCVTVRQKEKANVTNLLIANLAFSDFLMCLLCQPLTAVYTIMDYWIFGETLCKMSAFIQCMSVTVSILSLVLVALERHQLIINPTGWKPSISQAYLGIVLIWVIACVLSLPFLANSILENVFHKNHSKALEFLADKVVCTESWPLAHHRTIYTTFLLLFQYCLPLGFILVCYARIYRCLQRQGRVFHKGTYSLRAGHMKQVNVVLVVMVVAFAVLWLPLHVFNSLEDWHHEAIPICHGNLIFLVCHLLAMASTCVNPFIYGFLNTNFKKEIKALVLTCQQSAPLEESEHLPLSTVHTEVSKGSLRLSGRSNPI

In the case of Isovaleryl-APEK([Ahx-γGlu-C18 diacid])PEADASPEEIQRYYIALRHYYNWLTRQRY-NH2 [Compound 40], the Ki turned out to be 3.8 nM in the test with human NPY2 receptor [1], 7.3 nM with human NPY2 receptor [2] and 0.67 nM with human NPY2 receptor [3]. Besides, the “EC50, HTRF cAMP Gi assay” value with human NPY2 receptor [4] was 0.122 nM; with human NPY5 receptor, above 5000 nM; in the test with human NPY1 receptor, above 5000 nM; with human NPY4 receptor, above 5000 nM.

B1: Compound 176 (peptide)
peptide: Isovaleryl-APEK([Ahx-γGlu-C18 diacid])PEEDATPEEIQRYYVSLRHYYNWLTRQRY-NH2
SMILES: CC[C@H](C)[C@H](NC(=O)[C@H](CCC(=O)O)NC(=O)[C@H](CCC(=O)O)NC(=O)[C@@H]1CCCN1C(=O)[C@@H](NC(=O)[C@H](C)NC(=O)[C@H](CC(=O)O)NC(=O)[C@H](CCC(=O)O)NC(=O)[C@H](CCC(=O)O)NC(=O)[C@@H]1CCCN1C(=O)[C@H](CCCCNC(=O)CCCCCNC(=O)CC[C@H](NC(=O)CCCCCCCCCCCCCCCCC(=O)O)C(=O)O)NC(=O)[C@H](CCC(=O)O)NC(=O)[C@@H]1CCCN1C(=O)[C@H](C)NC(=O)CC(C)C)[C@@H](C)O)C(=O)N[C@@H](CCC(N)=O)C(=O)N[C@@H](CCCNC(=N)N)C(=O)N[C@@H](Cc1ccc(O)cc1)C(=O)N[C@@H](Cc1ccc(O)cc1)C(=O)N[C@H](C(=O)N[C@@H](CO)C(=O)N[C@@H](CC(C)C)C(=O)N[C@@H](CCCNC(=N)N)C(=O)N[C@@H](Cc1c[nH]cn1)C(=O)N[C@@H](Cc1ccc(O)cc1)C(=O)N[C@@H](Cc1ccc(O)cc1)C(=O)N[C@@H](CC(N)=O)C(=O)N[C@@H](Cc1c[nH]c2ccccc12)C(=O)N[C@@H](CC(C)C)C(=O)N[C@H](C(=O)N[C@@H](CCCNC(=N)N)C(=O)N[C@@H](CCC(N)=O)C(=O)N[C@@H](CCCNC(=N)N)C(=O)N[C@@H](Cc1ccc(O)cc1)C(N)=O)[C@@H](C)O)C(C)C
With B1, in the test with human NPY2 receptor [5], the “RLB ratio (RLB8/RLB7)” value was found to be 1.4. Moreover, the Ki is 5.7 nM with human NPY2 receptor [1]; 3.9 nM with human NPY2 receptor [6]; 8.7 nM with human NPY2 receptor [8]; 4 nM in the test with human NPY2 receptor [2]; 1.48 nM in the test with human NPY2 receptor [3]. The “RLB ratio (RLB6/RLB7)” value in the test with human NPY2 receptor [7] was 1. Also, the “EC50, HTRF cAMP Gi assay” value with human NPY2 receptor [4] is 0.168 nM; with human NPY5 receptor it was above 5000 nM; with human NPY1 receptor, above 5000 nM; in the test with human NPY4 receptor it was above 5000 nM.
